From patent US20050233963A1 (SCIENCE AND TECHNOLOGY CORPORATION UNM, published 2005)

B1: GST-UBP N1/2 (a.a. 1-145) (other, UniProt O43765 1-145, looked up)
chain: MDNKKRLAYAIIQFLHDQLRHGGLSSDAQESLEVAIQCLETAFGVTVEDSDLALPQTLPEIFEAAATGKEMPQDLRSPARTPPSEEDSAEAERLKTEGNEQMKVENFEAAVHFYGKAIELNPANAVYFCNRAAAYSKLGNYAGAV
notes: not shown: glutathione S-transferase (GST) fusion partner
B2: GST-UBP C1/2 (a.a. 145-313) (other, UniProt O43765 145-313, looked up)
chain: VQDCERAICIDPAYSKAYGRMGLALSSLNKHVEAVAYYKKALELDPDNETYKSNLKIAELKLREAPSPTGGVGSFDIAGLLNNPGFMSMASNLMNNPQIQQLMSGMISGGNNPLGTPGTSPSQNDLASLIQAGQQFAQQMQQQNPELIEQLRSQIRSRTPSASNDDQQE
notes: also called C/2; not shown: glutathione S-transferase (GST) fusion partner

What was measured:
[1] = molecular target: T1, hsc70 (constitutively expressed form of hsp70) (UniProt P11142 1-646); assay: far-western, GST fusion probe on blotted 20 ng protein
T1 construct: also called hs70 (printed for both hsp70 and hsc70); pure hsc70

[2] = molecular target: T2, hsp70 (heat shock protein 70) (UniProt P0DMV8 1-641); assay: as above
T2 construct: also called hs70 (printed for both hsp70 and hsc70); pure hsp70
T2 sequence (P0DMV8 whole entry): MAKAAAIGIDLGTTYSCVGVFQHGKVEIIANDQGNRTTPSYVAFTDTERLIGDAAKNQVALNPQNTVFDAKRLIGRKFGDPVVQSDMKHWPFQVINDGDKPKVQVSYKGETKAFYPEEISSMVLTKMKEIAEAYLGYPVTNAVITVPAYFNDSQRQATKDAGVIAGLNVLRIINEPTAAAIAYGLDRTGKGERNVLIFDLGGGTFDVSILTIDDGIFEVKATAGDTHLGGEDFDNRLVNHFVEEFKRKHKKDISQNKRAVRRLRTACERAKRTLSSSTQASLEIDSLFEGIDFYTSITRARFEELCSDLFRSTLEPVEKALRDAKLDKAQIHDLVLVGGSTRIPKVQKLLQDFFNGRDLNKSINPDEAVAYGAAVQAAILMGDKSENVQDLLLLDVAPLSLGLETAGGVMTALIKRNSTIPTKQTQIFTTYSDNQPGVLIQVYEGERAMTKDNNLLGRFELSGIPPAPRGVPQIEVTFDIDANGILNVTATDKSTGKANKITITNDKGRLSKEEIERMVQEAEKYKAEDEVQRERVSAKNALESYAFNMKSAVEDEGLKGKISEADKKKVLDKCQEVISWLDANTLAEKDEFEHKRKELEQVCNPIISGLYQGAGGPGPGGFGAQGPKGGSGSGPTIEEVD

T1 sequence (P11142 whole entry, the tested form may be a part): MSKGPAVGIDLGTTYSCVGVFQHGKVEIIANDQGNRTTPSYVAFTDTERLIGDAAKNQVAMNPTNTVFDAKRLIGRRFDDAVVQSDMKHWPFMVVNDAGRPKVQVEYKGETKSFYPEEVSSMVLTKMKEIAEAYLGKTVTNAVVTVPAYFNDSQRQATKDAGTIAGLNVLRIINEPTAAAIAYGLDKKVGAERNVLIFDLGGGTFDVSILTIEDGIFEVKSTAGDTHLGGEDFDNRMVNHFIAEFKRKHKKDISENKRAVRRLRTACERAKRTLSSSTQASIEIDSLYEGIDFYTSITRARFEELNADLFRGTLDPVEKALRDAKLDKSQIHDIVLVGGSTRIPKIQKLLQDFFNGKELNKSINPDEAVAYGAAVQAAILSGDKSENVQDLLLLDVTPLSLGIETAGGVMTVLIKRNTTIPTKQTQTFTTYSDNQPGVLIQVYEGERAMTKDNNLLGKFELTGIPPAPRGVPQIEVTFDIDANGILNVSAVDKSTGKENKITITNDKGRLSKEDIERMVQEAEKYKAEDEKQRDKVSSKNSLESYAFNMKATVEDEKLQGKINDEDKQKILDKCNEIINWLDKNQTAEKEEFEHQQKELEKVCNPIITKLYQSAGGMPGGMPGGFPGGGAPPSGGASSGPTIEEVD

Binder	binding result [1]	binding result [2]
B1	no binding	no binding
B2	no binding	no binding
